Reference: the supplement of paper PMC9876800

Test system: peptide library, one residue held at a place counted from the S/T acceptor
Experiment: relative phosphorylation of the sub-library (ratio to the mean residue at this position); higher = residue favoured
Settings: human
Method in brief: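 Spots on streptavidin membranes were phosphorimaged and quantified by densitometry to measure phosphorylation of biotinylated degenerate peptide sub-libraries by purified recombinant kinases, human or orthologue constructs. The reactions ran in 384-well plates for 90 min under kinase-specific conditions, with peptides at 50 μM and 50 μM ATP spiked with γ-32P-ATP. Relative sub-library phosphorylation is the ratio to the mean residue at that position.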

Chain of RIPK3, construct: aa1-313 (Q9Y572 1-313, looked up): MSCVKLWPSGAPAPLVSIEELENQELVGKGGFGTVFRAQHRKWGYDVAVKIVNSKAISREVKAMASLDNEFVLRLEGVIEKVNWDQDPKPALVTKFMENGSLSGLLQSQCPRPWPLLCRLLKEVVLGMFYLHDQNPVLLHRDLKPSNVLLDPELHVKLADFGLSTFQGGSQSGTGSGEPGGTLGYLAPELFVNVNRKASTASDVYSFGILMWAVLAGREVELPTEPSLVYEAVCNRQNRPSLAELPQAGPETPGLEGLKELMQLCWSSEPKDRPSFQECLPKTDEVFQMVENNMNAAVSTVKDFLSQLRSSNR
Chain of PLK3, construct: Full length (Q9H4B4 whole entry, looked up): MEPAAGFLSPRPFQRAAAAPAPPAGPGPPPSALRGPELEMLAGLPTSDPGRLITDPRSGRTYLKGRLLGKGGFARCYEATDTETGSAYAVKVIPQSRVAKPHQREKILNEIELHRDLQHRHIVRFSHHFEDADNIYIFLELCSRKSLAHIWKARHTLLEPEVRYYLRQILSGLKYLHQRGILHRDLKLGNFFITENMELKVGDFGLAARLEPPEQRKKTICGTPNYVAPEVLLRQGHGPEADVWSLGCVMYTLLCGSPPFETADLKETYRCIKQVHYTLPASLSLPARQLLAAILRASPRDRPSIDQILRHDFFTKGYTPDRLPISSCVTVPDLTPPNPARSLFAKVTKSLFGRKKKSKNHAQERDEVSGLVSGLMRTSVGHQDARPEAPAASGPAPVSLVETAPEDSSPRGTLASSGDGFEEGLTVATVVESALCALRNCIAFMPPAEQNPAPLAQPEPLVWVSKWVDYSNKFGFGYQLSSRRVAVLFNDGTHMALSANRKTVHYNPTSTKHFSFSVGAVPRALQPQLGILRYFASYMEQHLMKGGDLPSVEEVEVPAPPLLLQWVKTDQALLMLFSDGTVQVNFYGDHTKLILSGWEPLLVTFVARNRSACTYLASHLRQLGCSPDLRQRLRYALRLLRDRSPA

RIPK3, construct: aa1-313 (from UniProt Q9Y572)
relative phosphorylation
Settings | at +1 | at +2 | at +3 | at +4 | at -1 | at -2 | at -3 | at -4 | at -5
A fixed | 0.854 | 0.673 | 0.422 | 1.03 | 0.762 | 0.87 | 1.02 | 1.03 | 1.16
D fixed | 0.247 | 0.425 | 0.266 | 0.816 | 0.678 | 0.699 | 0.711 | 0.73 | 0.818
E fixed | 0.459 | 0.727 | 0.224 | 0.625 | 0.421 | 0.515 | 0.692 | 0.766 | 0.668
F fixed | 2.07 | 0.902 | 3 | 1.07 | 0.662 | 0.66 | 0.785 | 1.1 | 1.04
G fixed | 0.895 | 0.746 | 0.646 | 1.21 | 0.466 | 1.03 | 1.65 | 1.17 | 1.13
H fixed | 0.695 | 1.3 | 0.615 | 0.944 | 1.28 | 1.29 | 1.19 | 1.05 | 1.22
I fixed | 1.6 | 1.43 | 1.67 | 0.998 | 1.08 | 0.747 | 0.832 | 0.949 | 1.04
K fixed | 1.02 | 1.36 | 0.424 | 1.24 | 2.04 | 0.953 | 1.37 | 1.36 | 1.43
L fixed | 0.935 | 1.61 | 2.54 | 0.991 | 1.27 | 1.2 | 0.922 | 0.873 | 0.912
M fixed | 1.62 | 1.05 | 1.58 | 0.989 | 1.1 | 0.922 | 0.977 | 1.13 | 0.958
N fixed | 0.493 | 0.977 | 0.474 | 0.915 | 1.21 | 1.15 | 0.946 | 1.03 | 0.848
P fixed | 0.148 | 0.548 | 0.253 | 1.22 | 0.783 | 1.73 | 0.992 | 0.862 | 0.894
Q fixed | 1.32 | 1.04 | 0.399 | 0.938 | 0.888 | 0.847 | 0.979 | 0.818 | 0.826
R fixed | 1.76 | 1.31 | 0.669 | 1.15 | 1.73 | 2.22 | 1.48 | 1.23 | 1.12
V fixed | 1.26 | 1.14 | 0.661 | 0.863 | 1.11 | 0.697 | 0.732 | 0.969 | 0.991
W fixed | 0.81 | 0.603 | 1.68 | 1.11 | 0.623 | 0.727 | 0.944 | 0.999 | 0.986
Y fixed | 0.822 | 1.16 | 1.48 | 0.898 | 0.893 | 0.736 | 0.778 | 0.937 | 0.966
pThr fixed | 0.844 | 1.28 | 0.557 | 1.02 | 1.1 | 1.32 | 1.22 | 1.27 | 1.06
pTyr fixed | 0.422 | 0.937 | 0.518 | 0.722 | 0.785 | 0.648 | 0.892 | 0.859 | 0.733

PLK3, construct: Full length (from UniProt Q9H4B4)
relative phosphorylation
Settings | at +1 | at +2 | at +3 | at +4 | at -1 | at -2 | at -3 | at -4 | at -5
A fixed | 0.585 | 0.878 | 0.681 | 0.695 | 0.828 | 0.711 | 0.85 | 0.948 | 1.07
D fixed | 0.463 | 1.91 | 1.91 | 1.6 | 1.79 | 3.16 | 1.45 | 1.38 | 1.13
E fixed | 0.565 | 1.84 | 2.75 | 1.82 | 1.45 | 1.99 | 3.4 | 1.38 | 1.09
F fixed | 3.8 | 1.14 | 0.839 | 1.09 | 0.798 | 0.831 | 1.1 | 0.963 | 1.08
G fixed | 0.491 | 0.475 | 0.766 | 0.819 | 0.519 | 0.688 | 0.865 | 1.05 | 1.16
H fixed | 0.771 | 1.02 | 1.06 | 0.913 | 1.1 | 0.865 | 1.11 | 0.945 | 1.09
I fixed | 0.989 | 1.01 | 0.724 | 0.928 | 0.886 | 0.364 | 0.515 | 0.905 | 0.795
K fixed | 0.517 | 0.343 | 0.519 | 0.61 | 0.76 | 0.418 | 0.535 | 0.932 | 1.2
L fixed | 1.06 | 0.92 | 0.831 | 1.21 | 0.966 | 0.654 | 1.08 | 1.1 | 0.85
M fixed | 1.75 | 1.13 | 0.767 | 1.09 | 1.02 | 0.773 | 1.11 | 0.878 | 0.848
N fixed | 0.526 | 0.973 | 1.16 | 0.935 | 1.3 | 2.15 | 0.842 | 1.02 | 1.11
P fixed | 0.196 | 0.444 | 0.598 | 1.03 | 0.965 | 0.517 | 0.585 | 0.844 | 1.04
Q fixed | 0.93 | 0.714 | 0.876 | 0.881 | 0.929 | 1.06 | 0.778 | 0.831 | 0.757
R fixed | 0.87 | 0.56 | 0.642 | 0.706 | 1.06 | 0.592 | 0.597 | 0.906 | 1.13
V fixed | 0.814 | 0.806 | 0.706 | 0.656 | 0.928 | 0.437 | 0.476 | 0.834 | 0.769
W fixed | 1.04 | 1.51 | 1.1 | 1.12 | 0.566 | 0.654 | 0.934 | 1.19 | 0.964
Y fixed | 1.62 | 1.34 | 1.07 | 0.888 | 1.12 | 1.13 | 0.768 | 0.89 | 0.931
pThr fixed | 1.18 | 1.97 | 1.44 | 2.41 | 0.624 | 0.625 | 0.835 | 1.08 | 0.914
pTyr fixed | 1.06 | 6.48 | 2.1 | 2.03 | 3.06 | 0.735 | 1.01 | 1.17 | 1.11
